The values below come from the supplement of paper PMC9233669.

This sample holds only a part of the variants without activity.

Data set [1] deals with biotinyl-Trp-oxazolone. Briefly: self-aminoacylation, catalytic enhancement (BWO) (fold over background); higher = more active; k-Seq, kA / k0A0; sequences stand for … in GGGAAUGGAUCCACAUCUACGAAUUC…UUCACUGCAGACUUGACGAAGCUG
An outline of the steps:
(§1)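 Mutagenized RNA pools with a 21-nt variable region (0.43 μM) were reacted with each biotinyl-aminoacyl-oxazolone at 2–1250 μM for 90 minutes at room temperature, in 50 μL HEPES/NaCl/KCl/MgCl2/CaCl2 buffer containing 5% acetonitrile at pH 6.9–7.0. RNA captured on streptavidin was quantified by triplicate qPCR and by Illumina sequencing. The fraction reacted for each sequence was fit to a pseudo-first-order model with bootstrapping, and catalytic enhancement is the median kA divided by the uncatalyzed rate, taken as the low-activity peak of a bimodal Gaussian fit.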

The subject of data set [2] is biotinyl-Val-oxazolone. Nature of the data set: self-aminoacylation, catalytic enhancement (BVO) (fold over background); higher = more active; k-Seq, kA / k0A0; sequences stand for … in GGGAAUGGAUCCACAUCUACGAAUUC…UUCACUGCAGACUUGACGAAGCUG
An outline of the steps:
as §1

The subject of data set [3] is biotinyl-Ile-oxazolone. Briefly: self-aminoacylation, catalytic enhancement (BIO) (fold over background); higher = more active; k-Seq, kA / k0A0; sequences stand for … in GGGAAUGGAUCCACAUCUACGAAUUC…UUCACUGCAGACUUGACGAAGCUG
In a few lines: as §1

Data set [4] has as its system biotinyl-Leu-oxazolone. Briefly: self-aminoacylation, catalytic enhancement (BLO) (fold over background); higher = more active; k-Seq, kA / k0A0; sequences stand for … in GGGAAUGGAUCCACAUCUACGAAUUC…UUCACUGCAGACUUGACGAAGCUG
An outline of the steps:
as §1

For data set [5], the system named is biotinyl-Met-oxazolone. Briefly: self-aminoacylation, catalytic enhancement (BMO) (fold over background); higher = more active; k-Seq, kA / k0A0; sequences stand for … in GGGAAUGGAUCCACAUCUACGAAUUC…UUCACUGCAGACUUGACGAAGCUG
An outline of the steps:
as §1

Data set [6] concerns biotinyl-Phe-oxazolone. Nature of the data set: self-aminoacylation, catalytic enhancement (BFO) (fold over background); higher = more active; k-Seq, kA / k0A0; sequences stand for … in GGGAAUGGAUCCACAUCUACGAAUUC…UUCACUGCAGACUUGACGAAGCUG
In a few lines:
as §1

Consider “AUUACCCUGGUCUUUGAGUGA [Fam2.1 aminoacylation ribozyme variant]”, for which the self-aminoacylation turned out to be 9.67 in data set [1]; 4.17 in data set [2]; 4.05 in data set [3]; 8.33 in data set [4]; 7.29 in data set [5]; 41.8 in data set [6].

For the sequence “AUUACCCUGGUGACCGAGUGA [Fam2.1 aminoacylation ribozyme variant]”, the self-aminoacylation is 12.5 in data set [1]; 4.93 in data set [2]; 4.29 in data set [3]; 11.1 in data set [4]; 9.44 in data set [5]; 66.1 in data set [6].

As for “AUUACCCUGGUGAUCGAGCGA [Fam2.1 aminoacylation ribozyme variant]”, the self-aminoacylation in data set [1] is 1.82; in data set [2] it was 1.95; in data set [3] it was 2.06; in data set [4], 1.93; in data set [5], 1.76; in data set [6], 5.

For “AUUACCCUGGUGAUCGAGUAA [Fam2.1 aminoacylation ribozyme variant]”, the self-aminoacylation in data set [1] stood at 2.15; in data set [2], 1.23; in data set [3] it was 1.24; in data set [4] it was 1.21; in data set [5], 1.54; in data set [6], 0.541.

As to “AUUACCCUGGUGAUCGGGUGA [Fam2.1 aminoacylation ribozyme variant]”, the self-aminoacylation was 6.86 in data set [1]; 4.27 in data set [2]; 3.43 in data set [3]; 7.07 in data set [4]; 5.18 in data set [5]; 39.5 in data set [6].

With “AUUACCCUGGUGAUCUAGUGA [Fam2.1 aminoacylation ribozyme variant]”, the self-aminoacylation in data set [1] was 8.61; in data set [2], 3.29; in data set [3], 3.11; in data set [4], 6.59; in data set [5], 7.61; in data set [6] it was 45.1.

With “AUUACCCUGGUUAUCCAGUGA [Fam2.1 aminoacylation ribozyme variant]”, the self-aminoacylation worked out at 14.2 in data set [1]; 5.13 in data set [2]; 5.5 in data set [3]; 11.6 in data set [4]; 11.5 in data set [5]; 74.4 in data set [6].

Regarding “AUUACCCUGGUUAUCGAAUGA [Fam2.1 aminoacylation ribozyme variant]”, the self-aminoacylation amounted to 0.677 in data set [1]; 0.846 in data set [2]; 0.965 in data set [3]; 0.866 in data set [4]; 0.971 in data set [5]; 0.877 in data set [6].

As to “AUUACCCUGGUUAUGGAGUGA [Fam2.1 aminoacylation ribozyme variant]”, the self-aminoacylation is 8.01 in data set [1]; 3.93 in data set [2]; 3.95 in data set [3]; 7.9 in data set [4]; 7.77 in data set [5]; 47.4 in data set [6].

As for “AUUACCCUGGUUUUCGAGUGA [Fam2.1 aminoacylation ribozyme variant]”, the self-aminoacylation in data set [1] turned out to be 10.9; in data set [2] it was 4.43; in data set [3], 3.74; in data set [4], 9.42; in data set [5], 8.29; in data set [6], 45.7.

Regarding “AUUACCCUGUUCAACGAGUGA [Fam2.1 aminoacylation ribozyme variant]”, the self-aminoacylation amounted to 13.4 in data set [1]; 5.18 in data set [2]; 5.25 in data set [3]; 11.8 in data set [4]; 11.2 in data set [5]; 57 in data set [6].

As for “AUUACCCUGUUCAUCGAAUGA [Fam2.1 aminoacylation ribozyme variant]”, the self-aminoacylation in data set [1] amounted to 0.767; in data set [2], 1.13; in data set [3] it was 0.982; in data set [4] it was 0.871; in data set [5] it was 1.16; in data set [6], 1.18.

For “AUUACCCUGUUCAUCGAGCGA [Fam2.1 aminoacylation ribozyme variant]”, the self-aminoacylation was found to be 1.08 in data set [1]; 1.33 in data set [2]; 1.2 in data set [3]; 1.36 in data set [4]; 1.35 in data set [5]; 1.13 in data set [6].

With “AUUACCCUGUUCAUCGAGUGG [Fam2.1 aminoacylation ribozyme variant]”, the self-aminoacylation in data set [1] worked out at 1.48; in data set [2], 1.29; in data set [3] it was 1.08; in data set [4], 1.25; in data set [5], 1.03; in data set [6], 0.962.

Turning to “AUUACCCUGUUCAUCUAGUGA [Fam2.1 aminoacylation ribozyme variant]”, the self-aminoacylation in data set [1] is 17.3; in data set [2], 7.03; in data set [3], 6.08; in data set [4], 14.8; in data set [5], 16.4; in data set [6], 86.2.

In the case of “AUUACCCUGUUCCUCGAGUGA [Fam2.1 aminoacylation ribozyme variant]”, the self-aminoacylation in data set [1] stood at 4.81; in data set [2], 2.68; in data set [3], 2.27; in data set [4], 3.54; in data set [5] it was 3.86; in data set [6], 11.2.

For “AUUACCCUGUUUAUCGAGUGA [Fam2.1 aminoacylation ribozyme variant]”, the self-aminoacylation in data set [1] stood at 15.7; in data set [2] it was 6.02; in data set [3] it was 5.5; in data set [4], 12.3; in data set [5], 12.6; in data set [6], 62.5.

“AUUACCCUUGUAAUCGAGUGA [Fam2.1 aminoacylation ribozyme variant]”: the self-aminoacylation in data set [1] is 21.1; in data set [2] it was 6.66; in data set [3] it was 6.93; in data set [4] it was 16.3; in data set [5], 16.4; in data set [6], 127.

With “AUUACCCUUGUCAGCGAGUGA [Fam2.1 aminoacylation ribozyme variant]”, the self-aminoacylation stood at 6.54 in data set [1]; 3.3 in data set [2]; 2.94 in data set [3]; 6.14 in data set [4]; 5.08 in data set [5]; 28.6 in data set [6].

For the sequence “AUUACCCUUGUCAUCGAGGGA [Fam2.1 aminoacylation ribozyme variant]”, the self-aminoacylation was 1.3 in data set [1]; 0.957 in data set [2]; 1.16 in data set [3]; 1.27 in data set [4]; 1.28 in data set [5]; 2.14 in data set [6].

As to “AUUACCCUUGUCAUCGAGUGA [Fam2.1 aminoacylation ribozyme variant]”, the self-aminoacylation was found to be 7.65 in data set [1]; 3.54 in data set [2]; 3.19 in data set [3]; 5.88 in data set [4]; 5.94 in data set [5]; 21.8 in data set [6].

On to “AUUACCCUUGUCAUCGGGUGA [Fam2.1 aminoacylation ribozyme variant]”, for which the self-aminoacylation in data set [1] is 9.41; in data set [2] it was 4.39; in data set [3], 4.14; in data set [4], 9.03; in data set [5], 8.35; in data set [6], 45.3.
